Biological target: partial heads (10am13am phage T4 heads that ejected most of their packaged DNA, keeping a ~8-kb piece) (bacteriophage T4) (UniProt P13334)
Sequence of UniProt P13334 (P13334 whole entry, looked up): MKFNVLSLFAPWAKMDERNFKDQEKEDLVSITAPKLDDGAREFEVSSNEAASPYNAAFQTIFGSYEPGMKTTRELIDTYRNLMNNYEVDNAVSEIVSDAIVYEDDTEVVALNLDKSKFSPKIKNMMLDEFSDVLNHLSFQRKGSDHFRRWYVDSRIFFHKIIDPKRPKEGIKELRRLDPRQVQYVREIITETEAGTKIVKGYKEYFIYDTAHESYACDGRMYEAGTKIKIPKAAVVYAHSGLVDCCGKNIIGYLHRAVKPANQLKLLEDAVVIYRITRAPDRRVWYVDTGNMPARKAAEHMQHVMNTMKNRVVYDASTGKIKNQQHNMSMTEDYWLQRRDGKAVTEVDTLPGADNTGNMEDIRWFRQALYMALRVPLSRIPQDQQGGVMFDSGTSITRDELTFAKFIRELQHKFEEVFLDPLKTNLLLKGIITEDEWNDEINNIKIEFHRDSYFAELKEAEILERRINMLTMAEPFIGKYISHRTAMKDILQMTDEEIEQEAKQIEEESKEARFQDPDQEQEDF

Which single molecule optical tweezers: packaging rate of 10-kb DNA against 5 pN by head-gp17 complexes does the source give for “full-length gp17 (large terminase protein, packaging motor) (from UniProt P17312 1-610) (enzyme)” here?
The single molecule optical tweezers: packaging rate of 10-kb DNA against 5 pN by head-gp17 complexes was 1100 bp/s.

From PMC3039672
